Source: patent publication US20200131227A1, “POLYPEPTIDE WITH TUMOUR BINDING ACTIVITY” (RUPRECHT-KARLS-UNIVERSITÄT HEIDELBERG, priority 2017, published 2020)
Where a SMILES comes first, the peptide text is derived from it. Bridges are numbered along the chain shown (N, C = ends). Where no end group is shown, it is not given here. The star is where a group is joined. DOTA = O=C(O)CN1CCN(CC(=O)O)CCN(CC(=O)*)CCN(CC(=O)O)CC1; 125I = iodine-125 label on tyrosine, [125I]*

Legend:
[1] = Small-animal PET imaging, HNO97 xenografts; conditions: Balb/c nude, mouse, in vivo, iv, total radioactivity
Experimental: All experiments were conducted in compliance with the German animal protection laws. Eight week old Balb c/c nude mice (Charles River Laboratories) were inoculated subcutaneously at the right shoulder with 5×10^6 HNO97 cells in BD MatriGel™ (BD Bioscience). Xenografts were grown to a tumor diameter of 10-15 mm. For small animal-PET imaging mice were anesthetized using isoflurane inhalation and injected via tail-vein with 50 MBq (2 nmol) of the ^68Ga-labeled DOTA-SFITGv6 peptide (see above) solution in 100 μL PBS. Images were recorded on an Inveon small-animal PET scanner (Siemens) using a 60 min emission scan in list mode and a 10 min transmission scan. Images were taken in 3-dimensional (3D) mode and reconstructed iteratively with a fully 3D algorithm from a 256×256 matrix for viewing transaxial, coronal, and sagittal slices of 0.9 mm thickness. Pixel size was 0.38×0.38×0.79 mm3 and transaxial resolution obtained was 0.9 mm. For blocking experiments 100 μL of a 1 mM aqueous solution of SFITGv6 was pre-administered intraperitoneally 30 min before injection of the radiolabeled peptide. Biodistribution studies were performed after administration of 100 μL of a 20 nM ^177Lu-DOTA-SFITGv6 solution (1 MBq) as an intravenous bolus injection into the tail vein of the mice. After different time points (30 min to 6 hours) three animals, respectively, were sacrificed. Peripheral blood, heart, lung, spleen, liver, kidneys, muscle, brain, intestine, and injection site (tail, after intravenous injection only) were collected and weighted. Tissue-associated radioactivity was measured in a gamma counter (Berthold LB951G) and expressed as percentage of the injected dose per gram tissue (% ID/g).
All animal experiments were conducted in compliance with the German animal protection laws. For in vivo small animal PET imaging and organ distribution studies eight-week old Balb/c nude mice (Charles River Laboratories) were inoculated subcutaneously at the right shoulder with a total of 5×10^6 tumor cells in MatriGel (BD Bioscience). Xenografts were grown until a tumor diameter of 10-15 mm was reached.
3-dimensional (3D) PET images of whole mice were captured by the Siemens Inveon PET scanner as described in Example 1. To assess the biodistribution 100 μL of a 20 nM solution (1 MBq) of ^177Lu-DOTA-SFLAP3 and ^177Lu-DOTA-SFITGv6 were administered as an intravenous bolus injection into the tail vein of mice. For each time point (30 min to 6 hours) we sacrificed a total of three animals, and subsequently collected peripheral blood, heart, lung, spleen, liver, kidneys, muscle, brain, and intestine. Tissues were weighed and respective radioactivity was measured by a gamma counter (LB951G, Berthold Technologies). Values were expressed as percentage of the injected dose radioactivity (MBq) per gram tissue (% ID/g).

[2] = Small-animal PET imaging, HNO399 xenografts; set-up: species or system mice; conditions: Balb/c nude, mouse, in vivo, iv, total radioactivity; 60 min after injection; read-out: SUVmean in tumor
[3] = Small-animal PET imaging, HNO223 xenografts; set-up: species or system mice; conditions: Balb/c nude, mouse, in vivo, iv, total radioactivity; 60 min after injection; read-out: SUVmean in tumor
Capan-2 xenografts = assay: Small-animal PET imaging, Capan-2 xenografts; type: in vivo, mice; conditions: 25 MBq
Experimental: 6 to 8 week old Balb c/c nude mice (Charles River Lab.) were inoculated with 5*10^6 Capan-2 cells in 100 μl Opti-MEM medium. After 4 to 6 weeks the tumor has grown 10-15 mm in diameter. For small animal PET imaging 25 MBq of the ^68Ga-labeled peptide (2 nmol) was injected into the tail vein.

[4] = PET/CT scan of HNSCC tumor patient with SFLAP3; type: in vivo, human; conditions: human, right cervical lesion, iv, 322 MBq, total radioactivity; read-out: SUVmax right cervical lesion
From the text: (§1) The emission data were corrected for randoms, scatter and decay. […] The quantitative assessment of tracer accumulation was done using a region of interest technique and using standardized uptake values (SUV).

HNSCC tumor = assay: PET/CT scan of HNSCC tumor patient with SFLAP3; type: in vivo, human
From the text: as §1

[5] = system: metastasized pancreatic cancer; assay: PET/CT and scintigraphy of pancreatic cancer patient; type: in vivo, human; conditions: 1 and 3 hours after injection
Experimental: PET/CT scans of tumor patients and body scintigraphy were performed as described in Example 1.

carcinoma cell lines = assay: In vitro binding of radiolabeled peptides to several carcinoma cell lines; type: cell-based, human; conditions: 10^−6 M competitor; all tested HNSCC cell lines
Experimental: For binding studies, 2.5×10^5 to 4×10^5 cells were seeded in 6-well plates and cultivated for 48 hours. Cells were incubated for 60 min with 1 mL serum-free medium containing the ^125I-labeled peptide (see above). For competition experiments, cells were simultaneously exposed to unlabeled (10^-4 M to 10^-10 M) and ^125I-labeled peptides. After three washing steps with PBS (pH 7.4) the cells were lysed with 0.5 mL of 0.3 M NaOH. Experiments concerning the internalization, kinetics and efflux were additionally performed with ^177Lu-DOTA-SFITGv6. To evaluate kinetics and efflux HNO97 cells were incubated for different time intervals (10 min to 480 min) and 60 min, respectively, with ^177Lu-DOTA-SFITGv6 and lysed as described. To continue with the efflux experiment radioactive medium was replaced by non-radioactive medium and cells were incubated again for 60 to 240 min before measuring radioactivity of the cell lysates and the medium. For internalization experiments the cells were exposed to ^177Lu-DOTA-SFITGv6 for different time intervals (10 to 240 min) at 37° C. and 4° C. After three washing steps with PBS the cells were incubated with 1 mL of glycine-HCl 50 mmol/L in PBS (pH 2.8) for 10 min at RT to remove the surface bound activity. Then, cells were washed with 3 mL of ice-cold PBS and lysed as described. Radioactivity was determined in a gamma counter and calculated as percentage of the applied dose per 1×10^6 cells. Experiments were performed three times, and three repetitions per independent experiment were acquired.
(§2) For the assessment of the peptide binding capacity in vitro, 2.5-4×10^5 cells were seeded into 6-well plates and cultivated for 48 h. ^125I-labeled peptide resuspended in 1 mL serum-free medium was added and incubated for either 10 min or 60 min with or without different concentrations of unlabeled peptide (10^−4-10^−11 M). Afterwards, cell monolayers were washed three times with 1 mL phosphate-buffered saline (pH 7.4) to remove unbound peptide and the cells were harvested with 1.4 mL lysis buffer (0.3 M NaOH). To evaluate kinetic properties the cells were exposed to ^177Lu-DOTA-labeled peptides for 10, 30, 60, 120, and 240 min, respectively, and lysed as described. For the efflux experiments the cells were incubated with ^177Lu-DOTA-labeled peptides for 60 min. Thereafter, radioactive medium was replaced by non-radioactive medium and cell monolayers were incubated for additional 60, 120, and 240 min and afterwards lysed as described earlier. The internalization was assessed after exposure of the cells to ^177Lu-DOTA-labeled peptides for 10, 30, 60, 120, and 240 min at 37° C. Unspecifically bound peptide was removed from the surface by incubation with 1 M glycine-HCl solution (pH 2.2) for 10 min. The monolayer cell was rinsed with PBS and cells were lysed as described before. Radioactivity was determined in a y-counter and calculated as percentage of the applied dose per 1×10^6 cells. Experiments were performed three times, and three repetitions per independent experiment were acquired.

HNO399 cells = assay: In vitro binding on HNO399 cells; type: cell-based, human; conditions: 60 min; percent applied dose/10^6 cells
Experimental: as §2, with “To evaluate kinetic properties the cells were exposed to ^177Lu-DOTA-labeled peptides for 10, 30, 60, 120, and 240 min, respectively, and lysed as described.” left out, “The internalization was assessed after exposure of the cells to ^177Lu-DOTA-labeled peptides for 10, 30, 60, 120, and 240 min at 37° C.” left out

Capan-2 cells = assay: In vitro binding, internalization and efflux on Capan-2 cells; type: cell-based, human; conditions: 60 min
Experimental: (§3) For in vitro binding Studies, 4*10^5-6*10^5 cells were seeded in 6 well plates and cultivated for 24 to 48 hours. At the start of the experiment the medium was replaced with 1 ml serum free medium with a definite amount of radioactive labeled peptide per well. For normal binding assays the cells were incubated for 60 min at 37° C. and afterwards washed 3 times with PBS (pH 7.4). Cells were lysed with 2 times 0.5 ml of a 0.3 M NaOH +0.2% SDS lysis-buffer. Competition assays were performed with ^125I-labeled and unlabelled (10^−6 to 10^−11M) peptide and incubated at the same time for 60 min.
Cells were incubated for 10 to 240 min with ^177Lu-labelled peptide in internalization assays. After the washing steps, the cells were incubated with 1 ml glycine-HCl (1 M, pH 2.2) buffer for 10 min to remove surface bound peptide. Prior to the lyses the cells were washed again. Values are given as percentage of applied dose per 10^6 cells.
The efflux was tested with ^177Lu-labeled peptides. After 60 min incubation the radioactive medium was removed and 1 ml fresh serum-free medium was added. After additional incubation of 60, 120 or 240 min, cell bound activity was measured.

OV433 and OV429 = assay: In vitro binding on ovarian cancer cell lines; type: cell-based, human; conditions: highest binding among tested ovarian cell lines
Experimental: as §3

CC(C)C[C@@H]1NC(=O)[C@H](CC(=O)O)NC(=O)CNC(=O)[C@H](CCCNC(=N)N)NC(=O)CNC(=O)[C@H]([C@@H](C)O)NC(=O)[C@@H](NC(=O)[C@H](CCCNC(=N)N)NC(=O)CNC(=O)CN2CCN(CC(=O)O)CCN(CC(=O)O)CCN(CC(=O)O)CC2)CSSC[C@@H](C(=O)N[C@@H](Cc2ccc(O)cc2)C(=O)N2CCC[C@H]2C(=O)N[C@@H](CC(=O)O)C(N)=O)NC(=O)[C@H](CC(C)C)NC(=O)[C@H](CCCNC(=N)N)NC(=O)CNC1=O [^68Ga-DOTA-SFLAP3, metal not drawn] ({DOTA}-GRCTGRGDLGRLCYPD-NH2; disulfide 3-13; N-terminus and C-terminus assumed)
SUV at 1 h [1]: 0.63 SUV | SUV at 1 h [2]: 0.44 SUV | SUV at 1 h [3]: 0.32 SUV | time p.i. at which tracer accumulation was seen in the tumor (Capan-2 xenografts): 20 min | SUV [4]: 4.1 SUV | SUVmax Bight kidney (HNSCC tumor; 60 min): 22.43 | SUVmax Blood pool (mediast.) (HNSCC tumor; 60 min): 0.99 | SUVmax Cerebral parietal (HNSCC tumor; 60 min): 0.05 | SUVmax Colon ascendens (HNSCC tumor; 60 min): 9.2 | SUVmax Colon descendens (HNSCC tumor; 60 min): 3.75 | SUVmax Duodenum (HNSCC tumor; 60 min): 6.31 | SUVmax Hilar lymph nodes (HNSCC tumor; 60 min): 4.07 | SUVmax Ileum (HNSCC tumor; 60 min): 4.07 | SUVmax Jejunum (HNSCC tumor; 60 min): 10.46 | SUVmax Kidney (left) (HNSCC tumor; 60 min): 60.52 | SUVmax Liver (left) (HNSCC tumor; 60 min): 0.67 | SUVmax Liver (right) (HNSCC tumor; 60 min): 0.73 | SUVmax Lung (left) (HNSCC tumor; 60 min): 0.36 | SUVmax Lung (right) (HNSCC tumor; 60 min): 0.33 | SUVmax Muscle (glut.) (HNSCC tumor; 60 min): 1.94 | SUVmax Os ileum (HNSCC tumor; 60 min): 0.53 | SUVmax Pancreas head (HNSCC tumor; 60 min): 2.3 | SUVmax Plexus choroideus (HNSCC tumor; 60 min): 1.06 | SUVmax Spleen (HNSCC tumor; 60 min): 0.54 | SUVmax Stomach (HNSCC tumor; 60 min): 12.65 | SUVmax Thyroid (HNSCC tumor; 60 min): 3.27 | SUVmax Tumor (HNSCC tumor; 60 min, listed as 68Ga-DOTA labeled SFLAP3): 5.07 | SUVmax Tumor (HNSCC tumor; 60 min, listed as 68Ga-DOTA-labled SFLAP3): 5.1 | SUVmax Bight kidney (HNSCC tumor; 180 min): 26.41 | SUVmax Blood pool (mediast.) (HNSCC tumor; 180 min): 1.05 | SUVmax Cerebral parietal (HNSCC tumor; 180 min): 0.27 | SUVmax Colon ascendens (HNSCC tumor; 180 min): 19.37 | SUVmax Colon descendens (HNSCC tumor; 180 min): 2.97 | SUVmax Duodenum (HNSCC tumor; 180 min): 8.91 | SUVmax Hilar lymph nodes (HNSCC tumor; 180 min): 4.15 | SUVmax Ileum (HNSCC tumor; 180 min): 17.65 | SUVmax Jejunum (HNSCC tumor; 180 min): 9.2 | SUVmax Kidney (left) (HNSCC tumor; 180 min): 36.85 | SUVmax Liver (left) (HNSCC tumor; 180 min): 0.76 | SUVmax Liver (right) (HNSCC tumor; 180 min): 0.75 | SUVmax Lung (left) (HNSCC tumor; 180 min): 0.46 | SUVmax Lung (right) (HNSCC tumor; 180 min): 0.33 | SUVmax Muscle (glut.) (HNSCC tumor; 180 min): 1.92 | SUVmax Os ileum (HNSCC tumor; 180 min): 0.47 | SUVmax Pancreas head (HNSCC tumor; 180 min): 2.62 | SUVmax Plexus choroideus (HNSCC tumor; 180 min): 1.57 | SUVmax Spleen (HNSCC tumor; 180 min): 0.8 | SUVmax Thyroid (HNSCC tumor; 180 min): 3.24 | SUVmax Tumor (HNSCC tumor; 180 min): 4.64 | PET/CT accumulation in tumor lesions [5]: high accumulation over 3 hours into the tumor lesions

^125I-SFLAP3: ^125I-labeled SFLAP3 (GRCTGRGDLGRLCY(125I)PD; disulfide 3-13)
competition of binding by non-radioactively labeled counterpart (carcinoma cell lines): almost completely competed | binding of ^125I-labeled peptide (HNO399 cells): 10.1% | ^125I-SFLAP3 binding value (Capan-2 cells): 14% | binding of ^125I-SFLAP3 (OV433 and OV429): 5%
